The text below walks through data of US20100330095A1 (U3 PHARMA, published 2010).

One test deals with T1, cynomolgus monkey AXL (cynomolgus monkey, UniProt P30530 26-894 (human entry)).
T1 construct: Cloned from cynomolgus brain cDNA; transiently expressed on HEK293T cells (pcDNA3-cyAXL); also called cyAXL
T1 chain: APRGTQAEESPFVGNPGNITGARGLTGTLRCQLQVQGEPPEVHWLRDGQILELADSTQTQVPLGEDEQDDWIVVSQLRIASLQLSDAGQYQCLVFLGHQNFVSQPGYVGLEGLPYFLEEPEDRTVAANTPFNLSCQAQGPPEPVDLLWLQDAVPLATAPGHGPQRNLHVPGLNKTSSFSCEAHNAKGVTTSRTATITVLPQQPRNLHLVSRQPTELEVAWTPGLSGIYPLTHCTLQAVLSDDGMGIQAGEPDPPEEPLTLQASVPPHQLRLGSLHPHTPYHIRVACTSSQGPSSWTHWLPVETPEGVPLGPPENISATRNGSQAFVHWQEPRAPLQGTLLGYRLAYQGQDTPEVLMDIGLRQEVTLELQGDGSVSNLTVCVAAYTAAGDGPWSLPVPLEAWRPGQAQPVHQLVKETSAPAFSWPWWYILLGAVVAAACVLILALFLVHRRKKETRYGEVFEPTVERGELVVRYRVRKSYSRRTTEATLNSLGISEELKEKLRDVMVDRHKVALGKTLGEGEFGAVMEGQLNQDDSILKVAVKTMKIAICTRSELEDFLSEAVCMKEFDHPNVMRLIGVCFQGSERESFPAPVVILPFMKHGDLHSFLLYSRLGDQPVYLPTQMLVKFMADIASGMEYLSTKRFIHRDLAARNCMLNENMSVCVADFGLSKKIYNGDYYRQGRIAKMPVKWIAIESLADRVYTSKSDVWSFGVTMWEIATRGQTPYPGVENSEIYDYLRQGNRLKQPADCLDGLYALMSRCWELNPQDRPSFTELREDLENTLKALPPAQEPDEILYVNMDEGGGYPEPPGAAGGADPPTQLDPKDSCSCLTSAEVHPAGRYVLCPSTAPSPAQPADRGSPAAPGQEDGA
The test is described as follows: flow cytometry, transfected HEK293T cells, 10 µg/ml. Here is the method:
FIG. 3. Flow cytometry analysis of cross-reactivity of rat-anti AXL antibodies with mouse and cynomolgus monkey AXL as well as human Mer and Sky. HEK293T fibroblasts were transiently transfected with pcDNA3, pcDNA3-hAXL, pcDNA3 mAXL, pcDNA3-cyAXL, pcDNA3-hMer, or pcDNA3-hSky. […] See text for details.
For FACS analysis, 2×10⁵ cells were harvested with 10 mM EDTA in PBS, washed once with FACS buffer (PBS, 3% FCS, 0.4% azide) and seeded on a 96 well round bottom plate. […] After incubation on ice for 1 h, cells were washed twice with chilled FACS buffer and resuspended with PE-conjugated donkey anti-rat (Jackson) secondary antibody diluted 1:50 in FACS buffer (100 μl/well) or PE-conjugated donkey anti-mouse secondary antibody for control. Protected from light, cells were incubated on ice for 30 min, washed twice with FACS buffer and analyzed using an Epics XL-MCL flow cytometer (Beckman Coulter).
Background: Flow cytometry measures light scatter and fluorescence of single cells or particles in a stream.

Test [1] has as its target T2, human receptor tyrosine kinase AXL transcript variant 1 (human, UniProt P30530 26-894).
T2 sequence: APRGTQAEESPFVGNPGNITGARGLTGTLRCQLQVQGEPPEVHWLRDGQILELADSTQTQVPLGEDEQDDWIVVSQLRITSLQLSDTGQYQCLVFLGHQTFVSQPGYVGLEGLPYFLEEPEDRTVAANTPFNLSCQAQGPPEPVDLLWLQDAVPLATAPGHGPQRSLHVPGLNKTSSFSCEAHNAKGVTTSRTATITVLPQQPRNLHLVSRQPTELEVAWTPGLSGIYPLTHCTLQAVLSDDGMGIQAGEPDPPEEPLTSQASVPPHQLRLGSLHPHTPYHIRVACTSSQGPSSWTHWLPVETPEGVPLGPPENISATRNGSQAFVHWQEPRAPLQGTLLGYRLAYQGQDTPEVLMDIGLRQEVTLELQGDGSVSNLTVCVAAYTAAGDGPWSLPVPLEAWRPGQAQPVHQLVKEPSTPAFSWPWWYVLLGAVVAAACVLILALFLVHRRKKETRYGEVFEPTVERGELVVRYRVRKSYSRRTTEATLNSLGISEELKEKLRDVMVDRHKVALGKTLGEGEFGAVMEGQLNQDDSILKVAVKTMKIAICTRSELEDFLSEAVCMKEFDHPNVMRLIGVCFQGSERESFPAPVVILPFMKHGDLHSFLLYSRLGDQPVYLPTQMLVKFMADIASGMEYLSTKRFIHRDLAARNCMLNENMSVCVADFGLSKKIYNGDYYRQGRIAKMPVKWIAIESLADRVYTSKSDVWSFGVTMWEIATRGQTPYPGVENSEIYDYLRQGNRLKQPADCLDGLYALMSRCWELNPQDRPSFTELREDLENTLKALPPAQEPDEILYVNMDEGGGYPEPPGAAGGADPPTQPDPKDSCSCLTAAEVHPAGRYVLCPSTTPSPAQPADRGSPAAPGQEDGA
The test is described as follows: cell-based or functional assay.

The target in test [2] is T2, human receptor tyrosine kinase AXL …. The test is described as follows: FACS Scatchard (apparent KD) on human AXL overexpressing NIH3T3 cells. Here is the method: Human AXL overexpression NIH3T3 cells were harvested by incubation with 10 mM EDTA in PBS and resuspended at 6 million cells per ml in FACS buffer (PBS pH 7.4, 3% FCS, 0.1% NaN₃). […] Antibody binding was allowed to proceed for 2 hours on ice. Then, cells were washed twice with 250 μl FACS buffer per well, and resuspended in 200 μl of secondary antibody (anti-rat-PE; Jackson) diluted 1:50 in FACS buffer. After 45 minutes of incubation, cells were again washed twice in FACS buffer and resuspended in […] PBS for FACS analysis. Analysis was carried out on a Beckman-Coulter FACS FC500. To determine the apparent affinity constant KDapp, mean fluorescence values were plotted against the ratio of mean fluorescence and the corresponding antibody concentration ([M]).

B1: III 11D5 (antibody, rat IgG2a, V domains shown)
VH: EVQLQESGPGLVKPSQSLSLTCSVTGYSITSNYWGWIRKFPGNKMEWIGHITNSGNTTYNPSLKSRISISRDTSRNQFFLQLNSVTTEDTATYYCAKGAFDYWGQGVMVTVSS
VL: DIQMTQSPSSMSTSLGDRVTITCRASQDIGNYLSWFQQKVGKSPRRMIYGAIKLAVGVPSRFSGSRSGSDYSLTISSLESEDMAIYYCLQYIQFPLTFGSGTKLELK
notes: rat hybridoma antibody, antagonistic
Take B1: the binding result with cynomolgus monkey AXL is on record as “binds”. For the same molecule, the “IC50 of VEGF-A-stimulated HUVEC spheroid sprouting” value in test [1] is 700 nM. For the same molecule, the Kd in test [2] worked out at 0.81 nM.

B2: I 11B7 (antibody, V domains shown)
VH: EVQLQESGPGLVKPSQSLSLTCSVTGYSITSNYWGWIRKFPGDKMEWMGYITYSGSTSYNPSLKSRISITRDTSKNQFFLQLNSVTSEDTATYYCAITTFYYWGQGVMVTVSS
VL: DIQMTQAPSSLPASLGDRVTITCRASQDIGNYLRWFQQKPGKSPRLMISGATNLAAGVPSRFSGSRSGSDYSLTISSLESEDMADYYCLQSKESPWTFGGGTKLELK
notes: as for B1
As for B2, the binding result with cynomolgus monkey AXL was “binds”. In test [1], the “IC50 of VEGF-A-stimulated HUVEC spheroid sprouting” value stood at 98 nM. Moreover, the Kd in test [2] amounted to 0.38 nM.

B3: I 10D12 (antibody, V domains shown)
VH: EVQLQESGPGLVKPSQSLSLTCSVTGYSITSNYWGWIRKFPGNKMEWMGYITNSGGTAYNPSLKSRISITRDTSKNQFFLQLNSVIPEDSATYFCSRTPWDWGQGVMVTVSS
VL: DIQMTQAPSSLPASLGDRVTIACRASQDIGNYLRWFQQKPGKSPRLMISGATNLAAGVPSRFSGSRSGSDYSRTISSLESEDMADYYCLQSKESPWTFGGGTKLELK
notes: rat hybridoma antibody, antagonistic; subclass G1
On to B3, for which, in the test with cynomolgus monkey AXL, the binding result is “binds”.
